Data published in IntAct's records for PubMed 11801603.

B1: Baculoviral IAP repeat-containing protein 7 (Homo sapiens), Q96CA5 (parent)
chain: MGPKDSAKCLHRGPQPSHWAAGDGPTQERCGPRSLGSPVLGLDTCRAWDHVDGQILGQLRPLTEEEEEEGAGATLSRGPAFPGMGSEELRLASFYDWPLTAEVPPELLAAAGFFHTGHQDKVRCFFCYGGLQSWKRGDDPWTEHAKWFPSCQFLLRSKGRDFVHSVQETHSQLLGSWDPWEEPEDAAPVAPSVPASGYPELPTPRREVQSESAQEPGGVSPAEAQRAWWVLEPPGARDVEAQLRRLQEERTCKVCLDRAVSIVFVPCGHLVCAECAPGLQLCPICRAPVRSRVRTFLS
partner: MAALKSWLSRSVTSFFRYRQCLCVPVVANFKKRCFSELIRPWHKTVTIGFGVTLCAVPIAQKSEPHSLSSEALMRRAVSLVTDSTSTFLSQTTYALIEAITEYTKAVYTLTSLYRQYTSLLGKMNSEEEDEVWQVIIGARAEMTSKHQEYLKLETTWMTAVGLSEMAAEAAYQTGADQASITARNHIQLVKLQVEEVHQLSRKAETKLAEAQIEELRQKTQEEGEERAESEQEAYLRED
B2: Baculoviral IAP repeat-containing protein 7 (Homo sapiens), Q96CA5 (parent)
chain: B1 chain

Variants of: B1
Conditions: with dbloh_human DIABLO

Row | Variant | effect of a mutation on the interaction
1 | D120A | decreasing interaction
2 | D138A | decreasing interaction

Variants of: B2
Conditions: with casp9_human CASP9, P55211
Sequence of casp9_human CASP9, P55211 (P55211 whole entry): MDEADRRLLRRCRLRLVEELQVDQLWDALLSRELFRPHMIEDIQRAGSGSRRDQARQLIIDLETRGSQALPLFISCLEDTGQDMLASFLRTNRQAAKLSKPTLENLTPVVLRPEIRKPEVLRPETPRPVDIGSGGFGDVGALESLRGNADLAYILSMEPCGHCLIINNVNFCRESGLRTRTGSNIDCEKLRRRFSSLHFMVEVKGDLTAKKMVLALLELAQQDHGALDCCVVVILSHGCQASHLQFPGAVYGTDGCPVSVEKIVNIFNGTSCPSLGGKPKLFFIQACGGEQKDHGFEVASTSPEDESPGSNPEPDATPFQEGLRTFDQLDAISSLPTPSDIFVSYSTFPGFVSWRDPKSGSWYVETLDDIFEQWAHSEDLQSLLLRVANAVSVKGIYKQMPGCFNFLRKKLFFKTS

Row | Variant | effect of a mutation on the interaction
3 | D138A | decreasing interaction
